Each block holds one binder with its values, some of them ahead of it.
How the values were obtained:
[1] = target: T1, mesothelin (MsIn), murine peptide on H-2Db (mouse); test: multimer staining
T1 peptide: GQKMNAQAI
Source text: Flow cytometry: Mononuclear cells were stained with MsIn₄₀₆₋₄₁₄:H-2D^b-APC or -BV421 tetramer (1:100) in the presence of 1:100 Fc block (αCD16/32, Tonbo), and monoclonal antibodies diluted 1:100 in FACs Buffer (2% BSA+PBS) or (2.5% FBS+PBS+1% NaN₃) and specific to CD45 (30F-11, Biolegend), CD8a (53-6.7, Tonbo), CD44 (IM7, BD Biosciences), CD62L (MEL-14, Biolegend), CD69 (H1.2F3, BD Biosciences), CD25 (PC61, BD Biosciences), Vβ9 (MR10-2, Biolegend), CD3e (145-2C11, BD Biosciences), CD4 (GK1.5, BD Biosciences), and/or TCRβ (h57-597, eBiosciences) in the presence of live/dead stain (Tonbo Ghost dye in BV510 or APC ef780). Cells were fixed using Foxp3 transcription factor reagent (Tonbo), for 30 minutes at 4° C., washed and intracellular stained with aKi67 (B56, BD Biosciences) and/or Foxp3 (3G3, Tonbo) diluted 1:100 in Fix/Perm buffer (Tonbo) and stained overnight. The next day, cells were washed 2× with perm wash buffer and resuspended in FACs buffer or 0.4% PFA for 15 minutes at 4° C. Cells were resuspended in FACs buffer and Countbright Absolute Counting Beads (Thermo Fisher). Cells were acquired with a Fortessa 1770 flow cytometer and Facs Diva software (BD Biosciences). Data were analyzed using FlowJo software (version 10). ViSNE analysis was performed by gating on total live T cells with default settings of 1000 iterations, 30 perplexity and theta of 0.5 using Cytobank software.

[2] = target: T1, mesothelin (MsIn), murine peptide on …; test: cytokine release

binding result [1]: recognises
B1: 1045 TCR (TCR, V domains shown)
Valpha: GDSVTQTEGPVTVSESESLIINCTYSATSIAYPNLFWYVRYPGEGLQLLLKVITAGQKGSSRGFEATYNKETTSFHLQKASVQESDSAVYYCALGLDYANKMIFGLGTILRVRP
Vbeta: DTTVKQNPRYKLARVGKPVNLICSQTMNHDTMYWYQKKPNQAPKLLLFYYDKILNREADTFEKFQSSRPNNSFCSLYIGSAGLEYSAMYLCASSNPQDTQYFGPGTRLLVL

binding result [2]: recognises
B2: 7431 TCR (TCR, V domains shown)
Valpha: GDSVTQTEGPVTVSESESLIINCTYSATSIAYPNLFWYVRYPGEGLQLLLKVITAGQKGSSRGFEATYNKETTSFHLQKASVQESDSAVYYCALGPDTNAYKVIFGKGTHLHVLP
Vbeta: DTTVKQNPRYKLARVGKPVNLICSQTMNHDTMYWYQKKPNQAPKLLLFYYDKILNREADTFEKFQSSRPNNSFCSLYIGSAGLEYSAMYLCASSRGANTEVFFGKGTRLTVV
